Assay [1] has as its target NECAP1 PHear domain, 1-133 (UniProt Q8NC96). The assay is described as follows: ITC. The settings on record: reference: unphosphorylated peptide …; sites T156.
Assay [2] deals with TGN38 cytoplasmic domain peptide, lipid-linked, in PtdIns4,5P2 liposomes. Nature of the assay: SPR; BIAcore T200, liposomes (PC/PE with 4% PtdIns4,5P2 and 2% lipid-linked peptide) on an L1 sensor; core or Pcore injected at 50 nM to 50 μM; 10 mM Tris pH 8.7, 250 mM NaCl, 1 mM DTT; apparent constants from fast and slow dissociation amplitudes. (In general: SPR reads the build-up and loss of mass on a sensor chip optically.)

Assay [3] addresses Recombinant T156-phosphorylated AP2 core (UniProt P18484). The assay is described as follows: ITC; Nano ITC, 10°C, 100 mM TRIS pH 8, 250 mM NaCl, 0.25 mM TCEP; 0.05-0.1 mM Pcore in the cell, 2-3 mM PHear titrated in.
Assay [4] concerns the target μ2T156-phosphorylated AP2, endogenous in RPE cells (human (endogenous in RPE)) (UniProt O95782). The assay is described as follows: co-IP; native co-immunoprecipitation with anti-AP2α antibody AP6 on protein G-Sepharose from RPE cell lysates (0.1% NP40), overnight at 4°C; western blot. A general note: A western blot detects proteins with antibodies after separation by electrophoresis.

The target of assay [5] is NECAP1 PHear domain (NECAP 1-133), wild type (UniProt Q8NC96). The assay is described as follows: ITC; Nano ITC, 12°C, 75 mM HEPES pH 7.4, 0.25 mM TCEP; PHear domains in the cell, peptides at 1-5 mM titrated in. (Isothermal titration calorimetry measures the heat released or taken up as one component is titrated into another.)
Assay [6] has as its target T1, NECAP1 PHear (1-133) R32D (UniProt Q8NC96 1-133, R32D).
T1 construct: NECAP1 PHear domain, residues 1-133; Not in the plasmid list; source: E. coli BL21DE3 pLysS, purified (GST sepharose, thrombin cleavage, gel filtration); not shown: GST, N-terminal, cleaved
T1 sequence: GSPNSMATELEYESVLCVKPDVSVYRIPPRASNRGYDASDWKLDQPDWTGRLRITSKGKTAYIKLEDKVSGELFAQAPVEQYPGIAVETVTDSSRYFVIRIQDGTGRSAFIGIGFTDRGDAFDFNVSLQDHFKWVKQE
Described as above. To be noted: both partners purified.

The target in assay [7] is T2, NECAP1 PHear (1-133) R102A (UniProt Q8NC96 1-133, R102A).
T2 construct: NECAP1 PHear domain, residues 1-133; source: E. coli BL21DE3 pLysS, purified (GST sepharose, thrombin cleavage, gel filtration); not shown: GST, N-terminal, cleaved
T2 sequence: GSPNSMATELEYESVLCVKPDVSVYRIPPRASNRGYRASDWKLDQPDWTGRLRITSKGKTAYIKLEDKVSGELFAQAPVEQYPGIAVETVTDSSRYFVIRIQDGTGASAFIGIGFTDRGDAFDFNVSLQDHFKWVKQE
The description is as above. The settings on record: both partners purified.

Assay [8] addresses T3, NECAP1 PHear (1-133) S88A (UniProt Q8NC96 1-133, S88A).
T3 construct: NECAP1 PHear domain, residues 1-133; source: E. coli BL21DE3 pLysS, purified (GST sepharose, thrombin cleavage, gel filtration); not shown: GST, N-terminal, cleaved
T3 sequence: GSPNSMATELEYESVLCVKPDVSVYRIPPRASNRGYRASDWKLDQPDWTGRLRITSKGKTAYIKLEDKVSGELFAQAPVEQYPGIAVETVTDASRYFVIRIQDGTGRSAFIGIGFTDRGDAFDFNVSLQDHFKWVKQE
Described as above. To be noted: both partners purified.

Assay [9] has as its target T4, NECAP1 PHear (1-133) R102A (UniProt Q8NC96 1-133, R102A).
T4 sequence: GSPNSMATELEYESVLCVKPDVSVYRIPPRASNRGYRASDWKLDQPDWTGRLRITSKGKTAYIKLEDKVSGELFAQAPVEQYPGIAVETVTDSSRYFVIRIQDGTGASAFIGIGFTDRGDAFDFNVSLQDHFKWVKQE
Nature of the assay: ITC.

Assay [10] addresses T5, NECAP1 PHear (1-133) R32D (UniProt Q8NC96 1-133, R32D).
T5 sequence: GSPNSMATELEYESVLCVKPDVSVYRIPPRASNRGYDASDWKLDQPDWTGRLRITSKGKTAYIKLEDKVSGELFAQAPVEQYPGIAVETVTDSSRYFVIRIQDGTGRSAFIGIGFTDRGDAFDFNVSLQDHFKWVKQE
The assay is described as follows: ITC.

The target in assay [11] is T6, NECAP1 PHear (1-133) S88A (UniProt Q8NC96 1-133, S88A).
T6 sequence: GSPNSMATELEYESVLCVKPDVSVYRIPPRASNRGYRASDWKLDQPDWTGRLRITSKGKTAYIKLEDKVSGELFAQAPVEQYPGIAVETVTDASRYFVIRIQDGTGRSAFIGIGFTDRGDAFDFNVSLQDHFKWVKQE
The assay is described as follows: ITC.

Assay [12] concerns the target T7, NECAP1 PHear domain (NECAP 1-133), wild type (UniProt Q8NC96 1-133).
T7 chain: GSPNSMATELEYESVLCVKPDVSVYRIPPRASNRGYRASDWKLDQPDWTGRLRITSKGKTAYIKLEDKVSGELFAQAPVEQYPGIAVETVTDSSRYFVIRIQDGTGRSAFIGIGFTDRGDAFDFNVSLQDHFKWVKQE
The assay is described as follows: ITC; + FxDxF peptide.

Here are results for five molecules from paper PMC6706699 (Developmental Cell, 2019).

Square brackets hold non-standard residues; d marks the D form. Ends that are not written are not given here. pT = C[C@@H](OP(=O)(O)O)[C@H](N)C(=O)O

As usually defined, the Kd is the concentration at which binding is half-saturated.

Sequence of Recombinant T156-phosphorylated AP2 core (UniProt P18484) (P18484 whole entry, chain 1 of 4): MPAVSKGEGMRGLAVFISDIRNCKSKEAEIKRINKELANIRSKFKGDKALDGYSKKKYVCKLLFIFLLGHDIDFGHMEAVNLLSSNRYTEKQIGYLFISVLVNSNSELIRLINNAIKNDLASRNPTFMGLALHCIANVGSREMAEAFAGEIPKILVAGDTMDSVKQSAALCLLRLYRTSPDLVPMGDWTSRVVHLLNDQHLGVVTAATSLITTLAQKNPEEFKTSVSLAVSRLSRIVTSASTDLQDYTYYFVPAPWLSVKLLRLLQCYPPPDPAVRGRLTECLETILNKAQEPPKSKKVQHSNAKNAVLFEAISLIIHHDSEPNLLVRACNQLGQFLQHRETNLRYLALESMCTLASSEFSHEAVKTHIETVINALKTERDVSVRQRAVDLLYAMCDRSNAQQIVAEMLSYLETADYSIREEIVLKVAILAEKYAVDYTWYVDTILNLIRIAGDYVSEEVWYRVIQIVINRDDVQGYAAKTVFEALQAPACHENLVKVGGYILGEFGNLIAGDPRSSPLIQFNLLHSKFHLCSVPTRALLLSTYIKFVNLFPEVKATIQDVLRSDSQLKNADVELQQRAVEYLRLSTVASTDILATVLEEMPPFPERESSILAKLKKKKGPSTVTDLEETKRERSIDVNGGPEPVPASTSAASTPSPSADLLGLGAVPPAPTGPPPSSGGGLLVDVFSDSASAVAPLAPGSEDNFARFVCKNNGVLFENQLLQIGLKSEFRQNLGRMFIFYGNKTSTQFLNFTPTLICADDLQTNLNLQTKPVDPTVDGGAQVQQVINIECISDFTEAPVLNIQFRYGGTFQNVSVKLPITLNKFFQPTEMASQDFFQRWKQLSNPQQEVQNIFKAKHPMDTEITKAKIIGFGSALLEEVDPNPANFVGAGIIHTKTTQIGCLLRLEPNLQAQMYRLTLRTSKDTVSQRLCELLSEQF
Sequence of Recombinant T156-phosphorylated AP2 core (UniProt P18484) (P63010 1-592, chain 2 of 4, further chain): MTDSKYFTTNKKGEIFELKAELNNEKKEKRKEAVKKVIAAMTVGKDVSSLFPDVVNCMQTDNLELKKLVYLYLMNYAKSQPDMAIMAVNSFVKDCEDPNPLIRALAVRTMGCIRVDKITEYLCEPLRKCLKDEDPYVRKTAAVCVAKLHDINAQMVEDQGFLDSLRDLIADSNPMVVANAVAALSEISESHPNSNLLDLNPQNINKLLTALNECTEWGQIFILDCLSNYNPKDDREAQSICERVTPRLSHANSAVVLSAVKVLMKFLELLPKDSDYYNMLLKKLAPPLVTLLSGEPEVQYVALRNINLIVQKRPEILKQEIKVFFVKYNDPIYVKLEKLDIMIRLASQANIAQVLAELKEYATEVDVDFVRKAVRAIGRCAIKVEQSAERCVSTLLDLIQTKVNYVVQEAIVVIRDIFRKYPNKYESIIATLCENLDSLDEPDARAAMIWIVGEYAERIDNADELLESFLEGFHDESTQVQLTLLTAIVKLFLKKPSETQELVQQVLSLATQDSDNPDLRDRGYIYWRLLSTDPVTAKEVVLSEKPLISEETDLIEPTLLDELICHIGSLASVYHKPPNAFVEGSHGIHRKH
Sequence of Recombinant T156-phosphorylated AP2 core (UniProt P18484) (P84092 whole entry, chain 3 of 4, further chain): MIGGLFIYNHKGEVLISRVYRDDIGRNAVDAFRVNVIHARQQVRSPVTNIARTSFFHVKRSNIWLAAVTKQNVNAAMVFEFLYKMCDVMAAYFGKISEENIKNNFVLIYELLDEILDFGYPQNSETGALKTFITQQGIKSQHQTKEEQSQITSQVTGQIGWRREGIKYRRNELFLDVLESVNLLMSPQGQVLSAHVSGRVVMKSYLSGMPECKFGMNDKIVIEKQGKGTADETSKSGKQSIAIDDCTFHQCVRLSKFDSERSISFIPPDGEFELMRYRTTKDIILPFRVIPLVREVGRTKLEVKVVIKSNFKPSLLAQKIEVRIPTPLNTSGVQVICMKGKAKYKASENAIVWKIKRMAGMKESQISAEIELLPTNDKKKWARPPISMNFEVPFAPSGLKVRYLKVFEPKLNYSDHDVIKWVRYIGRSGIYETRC
Sequence of Recombinant T156-phosphorylated AP2 core (UniProt P18484) (P62743 whole entry, chain 4 of 4, further chain): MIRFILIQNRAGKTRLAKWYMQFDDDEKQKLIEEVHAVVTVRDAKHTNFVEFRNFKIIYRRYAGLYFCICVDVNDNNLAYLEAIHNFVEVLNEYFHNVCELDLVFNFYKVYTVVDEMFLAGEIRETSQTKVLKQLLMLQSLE
Sequence of μ2T156-phosphorylated AP2, endogenous in RPE cells (human (endogenous in RPE)) (O95782 whole entry, chain 1 of 4): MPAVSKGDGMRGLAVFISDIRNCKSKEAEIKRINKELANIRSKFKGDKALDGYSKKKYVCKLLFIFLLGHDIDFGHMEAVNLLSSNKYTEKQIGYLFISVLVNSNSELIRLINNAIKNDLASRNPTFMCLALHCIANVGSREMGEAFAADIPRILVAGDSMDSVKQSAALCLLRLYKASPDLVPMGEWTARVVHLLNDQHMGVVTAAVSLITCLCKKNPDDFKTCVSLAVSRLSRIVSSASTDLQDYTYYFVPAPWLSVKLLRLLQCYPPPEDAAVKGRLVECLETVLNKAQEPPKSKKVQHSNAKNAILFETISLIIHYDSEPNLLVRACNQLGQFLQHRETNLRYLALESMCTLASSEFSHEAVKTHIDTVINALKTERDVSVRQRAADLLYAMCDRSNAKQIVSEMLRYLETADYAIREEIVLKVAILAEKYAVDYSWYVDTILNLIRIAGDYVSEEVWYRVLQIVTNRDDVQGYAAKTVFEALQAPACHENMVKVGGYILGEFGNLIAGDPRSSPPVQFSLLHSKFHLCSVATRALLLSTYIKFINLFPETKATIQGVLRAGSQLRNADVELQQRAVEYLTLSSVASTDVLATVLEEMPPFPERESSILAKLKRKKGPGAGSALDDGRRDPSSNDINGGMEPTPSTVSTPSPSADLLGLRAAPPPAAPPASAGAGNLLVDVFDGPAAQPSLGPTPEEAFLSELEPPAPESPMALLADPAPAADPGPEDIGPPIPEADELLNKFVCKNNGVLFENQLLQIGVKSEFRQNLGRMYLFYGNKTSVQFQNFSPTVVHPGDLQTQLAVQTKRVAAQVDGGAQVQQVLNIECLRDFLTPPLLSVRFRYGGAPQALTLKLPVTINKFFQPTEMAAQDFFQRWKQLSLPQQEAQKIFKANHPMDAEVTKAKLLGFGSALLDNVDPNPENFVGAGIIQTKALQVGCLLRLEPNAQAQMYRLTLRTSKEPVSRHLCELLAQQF
Sequence of μ2T156-phosphorylated AP2, endogenous in RPE cells (human (endogenous in RPE)) (P63010 whole entry, chain 2 of 4, further chain): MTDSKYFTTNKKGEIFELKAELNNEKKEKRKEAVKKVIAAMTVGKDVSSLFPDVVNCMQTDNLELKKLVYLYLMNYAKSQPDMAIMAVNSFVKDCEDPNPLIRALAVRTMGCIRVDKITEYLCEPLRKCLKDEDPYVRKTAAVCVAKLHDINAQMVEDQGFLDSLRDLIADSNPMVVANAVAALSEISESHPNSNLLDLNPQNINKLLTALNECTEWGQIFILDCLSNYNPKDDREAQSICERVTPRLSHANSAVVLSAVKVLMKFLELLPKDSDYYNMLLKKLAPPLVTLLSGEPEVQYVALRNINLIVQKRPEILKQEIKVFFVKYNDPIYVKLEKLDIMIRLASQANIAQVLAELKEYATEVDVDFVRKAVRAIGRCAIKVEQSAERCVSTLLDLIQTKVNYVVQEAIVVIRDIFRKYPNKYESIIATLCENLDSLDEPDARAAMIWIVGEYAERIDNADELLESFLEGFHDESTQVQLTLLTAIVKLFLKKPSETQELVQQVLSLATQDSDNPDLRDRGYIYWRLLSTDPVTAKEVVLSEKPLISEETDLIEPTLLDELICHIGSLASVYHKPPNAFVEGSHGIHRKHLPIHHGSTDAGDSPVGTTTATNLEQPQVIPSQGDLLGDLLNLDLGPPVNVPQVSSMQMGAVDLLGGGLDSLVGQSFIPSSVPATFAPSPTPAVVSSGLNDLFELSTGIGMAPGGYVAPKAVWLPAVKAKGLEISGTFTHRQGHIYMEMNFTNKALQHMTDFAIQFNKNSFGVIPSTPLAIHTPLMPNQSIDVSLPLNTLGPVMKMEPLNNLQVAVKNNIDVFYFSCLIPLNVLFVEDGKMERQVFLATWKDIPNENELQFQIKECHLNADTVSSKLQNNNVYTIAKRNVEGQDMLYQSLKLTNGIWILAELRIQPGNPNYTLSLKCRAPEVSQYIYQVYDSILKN
Sequence of μ2T156-phosphorylated AP2, endogenous in RPE cells (human (endogenous in RPE)) (Q96CW1 whole entry, chain 3 of 4, further chain): as the sequence (P84092 whole entry, chain 3 of 4, further chain) above
Sequence of μ2T156-phosphorylated AP2, endogenous in RPE cells (human (endogenous in RPE)) (P53680 whole entry, chain 4 of 4, further chain): as the sequence (P62743 whole entry, chain 4 of 4, further chain) above

Regarding “AP2 μ2 subunit (recombinant AP2 core / Pcore, GST-μ2 linkers, μ2 linker peptides) μ2 linker, 149-163 (from UniProt P84092) pT156 peptide”, the KD result in [1] is reported as “gained; reference no binding detected”.
As to “Recombinant T156-phosphorylated AP2 core (from UniProt P18484 1-938; P63010 1-592; P84092 1-435; P62743 1-142) (complex)”, the fold increase in liposome-binding affinity against the unphosphorylated core in assay [2] was 3 fold.
Take “NECAP1 PHear domain (NECAP 1-133), wild type (from UniProt Q8NC96 1-133) (domain or fragment)”: the Kd in assay [3] was determined as 8 µM.
As for “mRuby2-Flag-GGGS-NECAP1 R90A (from UniProt Q8NC96-1 1-275) (natural protein)”, the percent reduction in binding against NECAP1-mRuby2 WT in assay [4] was found to be 60%.

B1: T156-phosphorylated μ2 linker peptide (residues 149–163) (peptide)
peptide: SQITSQV[pT]GQIGWRR
notes: also called Peptide μ2linker Phos; phosphorylated μ2 peptide; source: synthetic peptide (Genscript)
As to B1, the Kd was 55 µM in [5]; 57 µM in [9]; 126 µM in assay [10]; above 300 µM in assay [11]; 44.9 µM in [12]. The binding result in assay [6], in assay [7] and in assay [8] was “binds” in each case.
